The values below are quoted from earlier work in patent US20090169520A1, “Compounds, Pharmaceutical Compositions and Therapeutic Methods of Preventing and Treating Diseases and Disorders Associated With Amyloid Fibril Formation” (YISSUM RESEARCH DEVELOPMENT COMPANY OF THE HEBREW …, priority 2005, published 2009).

The conditions of the series: single C-terminal substitution (A539T); Bartels et al., 1992; cited from earlier work.

B1: BChE K variant: BChE variant with a single C-terminal substitution (A539T) (protein, UniProt P06276 29-602, looked up, variant A539T)
Cholinesterase: EDDIIIATKNGKVRGMNLTVFGGTVTAFLGIPYAQPPLGRLRFKKPQSLTKWSDIWNATKYANSCCQNIDQSFPGFHGSEMWNPNTDLSEDCLYLNVWIPAPKPKNATVLIWIYGGGFQTGTSSLHVYDGKFLARVERVIVVSMNYRVGALGFLALPGNPEAPGNMGLFDQQLALQWVQKNIAAFGGNPKSVTLFGESAGAASVSLHLLSPGSHSLFTRAILQSGSFNAPWAVTSLYEARNRTLNLAKLTGCSRENETEIIKCLRNKDPQEILLNEAFVVPYGTPLSVNFGPTVDGDFLTDMPDILLELGQFKKTQILVGVNKDEGTAFLVYGAPGFSKDNNSIITRKEFQEGLKIFFPGVSEFGKESILFHYTDWVDDQRPENYREALGDVVGDYNFICPALEFTKKFSEWGNNAFFYYFEHRSSKLPWPEWMGVMHGYEIEFVFGLPLERRDNYTKAEEILSRSIVKRWANFAKYGNPNETQNNSTSWPVFKSTEQKYLTLNTESTRIMTKLRAQQCRFWTSFFPKVLEMTGNIDETEWEWKAGFHRWNNYMMDWKNQFNDYTSKKESCVGL
For the molecule B1, the “reduction in hydrolytic activity” value was 30%.
